Legend:
[1] = target: T1, Folylpolyglutamate synthase, mitochondrial (Homo sapiens, UniProt Q05932); test: Binding affinity as Competitive substrate in the presence of […] aminopterin towards recombinant Human Folyl-polyglutamate synthase (FPGS)
T1 sequence (Q05932 whole entry): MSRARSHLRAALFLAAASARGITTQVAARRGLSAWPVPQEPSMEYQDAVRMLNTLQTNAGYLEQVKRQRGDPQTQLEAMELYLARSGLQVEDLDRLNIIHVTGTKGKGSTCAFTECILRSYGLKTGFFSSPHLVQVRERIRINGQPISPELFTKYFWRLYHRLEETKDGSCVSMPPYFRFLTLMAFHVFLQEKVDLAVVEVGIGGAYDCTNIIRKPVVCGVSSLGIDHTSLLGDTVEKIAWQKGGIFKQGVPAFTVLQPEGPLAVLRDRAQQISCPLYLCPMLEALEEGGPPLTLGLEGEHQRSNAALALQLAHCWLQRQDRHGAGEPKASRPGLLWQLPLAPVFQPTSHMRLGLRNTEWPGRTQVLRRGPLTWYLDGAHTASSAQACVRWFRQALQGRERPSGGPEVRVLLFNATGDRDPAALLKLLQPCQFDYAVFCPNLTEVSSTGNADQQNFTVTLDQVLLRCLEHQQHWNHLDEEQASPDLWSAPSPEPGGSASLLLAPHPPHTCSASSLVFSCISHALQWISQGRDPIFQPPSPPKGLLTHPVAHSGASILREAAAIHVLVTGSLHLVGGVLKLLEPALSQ

[2] = compound: Nc1nc(O)c2c(n1)NCC(CNc1ccc(C(=O)NC(CCC(=O)O)C(=O)O)cc1)C2; test: (§1) Binding affinity as Competitive substrate in the presence of 10 uM tetrahydrofolate towards recombinant Human Folyl-polyglutamate synthase (FPGS)
[3] = compound: Nc1nc(O)c2c(n1)NCC(CNc1ccc3c(c1)CN([C@@H](CCC(=O)O)C(=O)O)C3=O)C2; test: as §1
[4] = compound: Nc1nc(O)c2cc(CNc3ccc4c(c3)CN([C@@H](CCC(=O)O)C(=O)O)C4=O)cnc2n1; test: as §1

Ki [1] [µM] | Molecule | Km [2] [µM] | Km [3] [µM] | Km [4] [µM]
110 | NCCC[C@@H](C(=O)O)N1Cc2cc(NCc3cnc4nc(N)[nH]c(=O)c4c3)ccc2C1=O | – | – | –
0.2 | NCCC[C@@H](C(=O)O)N1Cc2cc(NCC3CNc4nc(N)nc(O)c4C3)ccc2C1=O (stereo not given in full) | – | – | –
– | Folylpolyglutamate synthase, mitochondrial (Homo sapiens), Q05932 (protein) MSRARSHLRAALFLAAASARGITTQVAARRGLSAWPVPQEPSMEYQDAVRMLNTLQTNAGYLEQVKRQRGDPQTQLEAMELYLARSGLQVEDLDRLNIIHVTGTKGKGSTCAFTECILRSYGLKTGFFSSPHLVQVRERIRINGQPISPELFTKYFWRLYHRLEETKDGSCVSMPPYFRFLTLMAFHVFLQEKVDLAVVEVGIGGAYDCTNIIRKPVVCGVSSLGIDHTSLLGDTVEKIAWQKGGIFKQGVPAFTVLQPEGPLAVLRDRAQQISCPLYLCPMLEALEEGGPPLTLGLEGEHQRSNAALALQLAHCWLQRQDRHGAGEPKASRPGLLWQLPLAPVFQPTSHMRLGLRNTEWPGRTQVLRRGPLTWYLDGAHTASSAQACVRWFRQALQGRERPSGGPEVRVLLFNATGDRDPAALLKLLQPCQFDYAVFCPNLTEVSSTGNADQQNFTVTLDQVLLRCLEHQQHWNHLDEEQASPDLWSAPSPEPGGSASLLLAPHPPHTCSASSLVFSCISHALQWISQGRDPIFQPPSPPKGLLTHPVAHSGASILREAAAIHVLVTGSLHLVGGVLKLLEPALSQ | 0.26 | 0.018 | 2.3
